In patent publication US20200165351A1 (University of California, published 2020):
One block for each binder: values may come before it.

Experiments:
[1] = target: T1, bacterially produced N-cadherin ECD1-3 (UniProt P19022 160-497, limits assumed); assay: ELISA, saturation binding on immobilized antigen, half-maximal binding
T1 construct: domain: ECD1-3; Antigen against which hybridoma 1H7 was selected; also called ECD1-3 (bacterially produced)
T1 sequence (looked up): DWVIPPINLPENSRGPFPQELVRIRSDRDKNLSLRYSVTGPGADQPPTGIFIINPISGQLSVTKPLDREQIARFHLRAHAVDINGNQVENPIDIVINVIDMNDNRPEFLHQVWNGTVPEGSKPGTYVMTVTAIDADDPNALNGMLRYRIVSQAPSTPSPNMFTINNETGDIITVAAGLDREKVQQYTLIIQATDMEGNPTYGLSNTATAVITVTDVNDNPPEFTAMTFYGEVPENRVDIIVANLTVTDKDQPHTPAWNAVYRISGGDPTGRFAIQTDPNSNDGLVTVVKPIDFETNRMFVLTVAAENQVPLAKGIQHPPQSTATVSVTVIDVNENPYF
Method: FIG. 11 depicts saturation binding of full length IgGs to recombinant antigen in ELISA. Bacterially produced antigens ECD4 and ECD1-3 were immobilized. Bound antibodies were detected with goat anti-human Fcg-AP or goat anti-mouse Fcg-AP respectively.
Saturation binding of the humanized full-length antibodies in comparison to the parental murine antibodies was tested in ELISA.

[2] = target: T2, recombinant human N-cadherin ECD1-3-Fc (human; murine, UniProt P19022 160-497); assay: ELISA, saturation binding on immobilized antigen
T2 construct: range 160-497; Cloned into pSECTag2A(AgeI); produced in 293-F cells, Protein A purified; also called Ncad-ECD1-3-Fc; not shown: murine gamma 2a Fc region
T2 sequence (looked up): T1 sequence (looked up)
Method: Saturation binding of the humanized scFv fragments was performed on immobilized recombinant human Ncad-ECD1-3-Fc in ELISA (FIG. 8) confirming successful humanization and retained antigen specificity.

[3] = target: bacterially produced human N-cadherin ECD4 with ECD3 overhang (human) (UniProt P19022); assay: ELISA, saturation binding on immobilized antigen, half-maximal binding

Kd [1]: 0.4 nM
B1: hu1H7 IgG (antibody, V domains shown)
VH: QVQLVQSGAEVKKPGASVKVSCKASGFTFTDYLIQWVRQAPGQGLEWIGWIYPGSGSIKYNEKFQGRVTMTADTSINTAYMELSRLRSDDTAVYFCARRGDWGGFFDYWGQGTLVTVSS
VL: EIVLTQSPATLSLSPGERATLSCTASSSVSSSYLHWYQQKPGLAPRLWIFSTSNLASGIPDRFSGSGSGTDFTLTISRLEPEDFAVYYCHQYHRSLTFGGGTKVEIK
notes: also called h1H7; humanized full-length antibody hu1H7

binding result [2]: binds
B2: humanized 2A9 scFv (scFv)
scFv: QVQLVQSGAEVKKPGASVKLSCKASGYTFTSYWMQWVRQAPGQGLEWIGAIYPGDGETTYTQKFKGRVTMTADTSISTAYMELSRLRSDDTAVYYCAKGDGYWAMDYWGQGTLVTVSSGGGGSGGGGSGGGGSDVVMTQSPLSLPVTLGQPASISCRSSQSLVHSNGNTYLHWYQQRPGQSPRLLIYKVSNRFSGVPDRFSGSGSGTDFTLKISRVEAEDVGVYYCSQSTHVPLTFGAGTKLELK
notes: VH-(G4S)3-VL scFv secreted with the Ig kappa leader; also called hu2A9 scFv; scFv hu2A9; not shown: C-terminal tag from vector pSECTag2A (His-tag; detected through c-Myc)

Kd [3]: 0.5 nM
B3: hu2A9 IgG (antibody, V domains shown)
VH: QVQLVQSGAEVKKPGASVKLSCKASGYTFTSYWMQWVRQAPGQGLEWIGAIYPGDGETTYTQKFKGRVTMTADTSISTAYMELSRLRSDDTAVYYCAKGDGYWAMDYWGQGTLVTVSS
VL: DVVMTQSPLSLPVTLGQPASISCRSSQSLVHSNGNTYLHWYQQRPGQSPRLLIYKVSNRFSGVPDRFSGSGSGTDFTLKISRVEAEDVGVYYCSQSTHVPLTFGAGTKLELK
